Columns and labels:
[1] = molecular target: Klebsiella pneumoniae RstA N-terminal receiver domain (Klebsiella pneumoniae) (UniProt A6T8N1); assay: NMR line-widths; inactive kpRstA RD (without BeF3-) at high concentrations; data not shown
[2] = molecular target: the molecule itself; assay: SEC; full-length kpRstA in the presence of BeF3-; data not shown
kpRstA DBD [3] = molecular target: T1, kpRstA DBD (Klebsiella pneumoniae, UniProt A6T8N1 130-236); assay: ITC; one-site model, N = 1.05 (text gives error 0.54); ITC 25 C: 20 mM Tris pH 7.5, 100 mM NaCl (DBD); plus 7 mM MgCl2 with or without 5.3 mM BeSO4 and 35 mM NaF (full-length). NMR of complex: 20 mM Na phosphate pH; conditions: protein: recombinant; tags: N-terminal M-6H-AMG; chain copies: 2
T1 sequence: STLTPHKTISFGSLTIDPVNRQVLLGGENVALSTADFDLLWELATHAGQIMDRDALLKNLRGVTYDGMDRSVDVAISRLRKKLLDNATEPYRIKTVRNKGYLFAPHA

kpRstA DBD R207A = kpRstA DBD R207A (Klebsiella pneumoniae, UniProt A6T8N1 130-236, R207A); assay: ITC; binding completely abolished; DNA-16a per Figure 1E legend (Table 1 says DNA-22); ITC 25 C: 20 mM Tris pH 7.5, 100 mM NaCl (DBD); plus 7 mM MgCl2 with or without 5.3 mM BeSO4 and 35 mM NaF (full-length). NMR of complex: 20 mM Na phosphate pH; conditions: protein: recombinant; tags: N-terminal M-6H-AMG; chain copies: 2
kpRstA DBD [4] = molecular target: T1, kpRstA DBD; assay: ITC; sequential model, KD1 (first site); ITC 25 C: 20 mM Tris pH 7.5, 100 mM NaCl (DBD); plus 7 mM MgCl2 with or without 5.3 mM BeSO4 and 35 mM NaF (full-length). NMR of complex: 20 mM Na phosphate pH; conditions: protein: recombinant; tags: N-terminal M-6H-AMG; chain copies: 2
kpRstA full-length = molecular target: T2, kpRstA full-length (Klebsiella pneumoniae, UniProt A6T8N1 1-239); assay: ITC; without BeF3-, 7 mM MgCl2; sequential model, KD1; ITC 25 C: 20 mM Tris pH 7.5, 100 mM NaCl (DBD); plus 7 mM MgCl2 with or without 5.3 mM BeSO4 and 35 mM NaF (full-length). NMR of complex: 20 mM Na phosphate pH; conditions: protein: recombinant; tags: His-tag removed by thrombin; N-terminal GSAMA remains; chain copies: 2
T2 sequence: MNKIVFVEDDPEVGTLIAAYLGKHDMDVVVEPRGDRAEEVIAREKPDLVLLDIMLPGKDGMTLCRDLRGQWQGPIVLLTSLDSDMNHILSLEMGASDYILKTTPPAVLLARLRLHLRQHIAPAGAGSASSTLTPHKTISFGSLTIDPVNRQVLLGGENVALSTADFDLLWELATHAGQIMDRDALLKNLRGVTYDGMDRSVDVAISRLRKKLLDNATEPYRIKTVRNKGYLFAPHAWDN

Klebsiella pneumoniae RstA N-terminal receiver domain (from UniProt A6T8N1 1-119) (domain or fragment)
stoichiometry N [1]: 2

B1: full-length Klebsiella pneumoniae RstA (natural protein)
chain: GSAMAMNKIVFVEDDPEVGTLIAAYLGKHDMDVVVEPRGDRAEEVIAREKPDLVLLDIMLPGKDGMTLCRDLRGQWQGPIVLLTSLDSDMNHILSLEMGASDYILKTTPPAVLLARLRLHLRQHIAPAGAGSASSTLTPHKTISFGSLTIDPVNRQVLLGGENVALSTADFDLLWELATHAGQIMDRDALLKNLRGVTYDGMDRSVDVAISRLRKKLLDNATEPYRIKTVRNKGYLFAPHAWDN
notes: RstA response regulator of Klebsiella pneumoniae, full length (RD residues 1-119, DBD residues 131-236); Cloned in a modified pET32a(+) lacking the enterokinase site; also called kpRstA; full-length kpRstA; source: E. coli BL21(DE3), purified (Ni-NTA, Superdex-75 SEC, thrombin digestion); not shown: His-tag, N-terminal, cleaved
stoichiometry N [2]: 2

B2: DNA-16a (dsDNA)
DNA 1: ACGTTGTACATTCCGT
DNA 2: ACGGAATGTACAACGT
Kd (kpRstA DBD [3]): 8.17 ± 0.53 µM | binding result (kpRstA DBD R207A): no binding

B3: DNA-22 (dsDNA)
DNA 1: GTTGTACATTCCGTTACTCCCT
DNA 2: AGGGAGTAACGGAATGTACAAC
Kd (kpRstA DBD [4]): 10.3 ± 1.14 µM | Kd (kpRstA full-length): 45.5 ± 8.41 µM
